According to publication PMC5356443, “Structural, mechanistic and functional insight into gliotoxin bis-thiomethylation in Aspergillus fumigatus” (Open Biology, 2017):

Experiments:
[1] = test system: [H][C@]12C(=CC=C[C@@H]1O)C[C@@]1(S)C(=O)N(C)[C@@](S)(CO)C(=O)N12; test: RP-HPLC methyltransferase assay with purified enzyme, Km determination; type: biochemical, Aspergillus fumigatus; details: SAM
[2] = target: GtmA (gliotoxin S-methyltransferase, TmtA) (Aspergillus fumigatus, UniProt Q4X158); test: as above; type: biochemical
Chain of GtmA (gliotoxin S-methyltransferase, TmtA) (Q4X158 whole entry): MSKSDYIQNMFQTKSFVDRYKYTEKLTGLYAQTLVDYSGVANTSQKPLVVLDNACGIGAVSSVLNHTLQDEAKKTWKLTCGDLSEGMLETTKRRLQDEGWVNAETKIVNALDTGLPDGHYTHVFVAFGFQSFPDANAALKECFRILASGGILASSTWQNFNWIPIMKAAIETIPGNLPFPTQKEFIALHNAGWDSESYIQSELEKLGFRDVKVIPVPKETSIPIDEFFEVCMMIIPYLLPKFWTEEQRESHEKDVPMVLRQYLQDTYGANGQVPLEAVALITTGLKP

Compound | Km [1] | Km [2]
GtmA (gliotoxin S-methyltransferase, TmtA) (Aspergillus fumigatus Af293) | 38.62 µM | –
CS[C@@]12CC3=CC=C[C@H](O)[C@H]3N1C(=O)[C@](S)(CO)N(C)C2=O [MmGT, monomethylgliotoxin] | – | 184 µM
